According to patent US20210163536A1:

Assays:
[1] = biological target: human melanocortin-1 receptor (human) (UniProt Q01726); test: competition with [125I]-NDP-alpha-MSH, CHO-K1 cell membranes
[2] = biological target: human melanocortin-3 receptor (human) (UniProt P41968); test: as above
[3] = biological target: human melanocortin-4 receptor (human) (UniProt P32245); test: as above
[4] = biological target: human melanocortin-5 receptor (human) (UniProt P33032); test: as above
[5] = biological target: human melanocortin-3 receptor (human) (UniProt P41968); test: cell-based or functional assay
[6] = biological target: human melanocortin-4 receptor (human) (UniProt P32245); test: cell-based or functional assay
[7] = biological target: human melanocortin-1 receptor (human) (UniProt Q01726); test: cell-based or functional assay
[8] = biological target: human melanocortin-5 receptor (human) (UniProt P33032); test: cell-based or functional assay

human melanocortin-5 receptor (human), sequence (P33032 whole entry): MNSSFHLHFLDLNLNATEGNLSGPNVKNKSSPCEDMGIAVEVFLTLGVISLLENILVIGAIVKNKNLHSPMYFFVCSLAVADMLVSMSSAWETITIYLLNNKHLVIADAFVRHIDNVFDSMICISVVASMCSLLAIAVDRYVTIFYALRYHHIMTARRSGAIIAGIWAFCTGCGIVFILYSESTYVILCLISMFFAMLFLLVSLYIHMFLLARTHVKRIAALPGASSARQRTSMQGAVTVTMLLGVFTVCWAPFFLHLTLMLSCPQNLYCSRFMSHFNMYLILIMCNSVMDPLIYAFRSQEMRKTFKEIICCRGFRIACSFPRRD
human melanocortin-1 receptor (human), sequence (Q01726 whole entry): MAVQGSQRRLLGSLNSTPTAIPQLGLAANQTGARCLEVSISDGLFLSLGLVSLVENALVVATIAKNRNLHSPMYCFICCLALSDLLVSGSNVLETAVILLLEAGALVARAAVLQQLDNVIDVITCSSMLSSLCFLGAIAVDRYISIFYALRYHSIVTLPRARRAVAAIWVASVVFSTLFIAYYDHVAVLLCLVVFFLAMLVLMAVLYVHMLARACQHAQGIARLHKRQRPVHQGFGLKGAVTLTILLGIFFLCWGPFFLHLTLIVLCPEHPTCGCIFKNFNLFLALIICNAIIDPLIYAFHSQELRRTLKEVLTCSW
human melanocortin-3 receptor (human), sequence (P41968 whole entry): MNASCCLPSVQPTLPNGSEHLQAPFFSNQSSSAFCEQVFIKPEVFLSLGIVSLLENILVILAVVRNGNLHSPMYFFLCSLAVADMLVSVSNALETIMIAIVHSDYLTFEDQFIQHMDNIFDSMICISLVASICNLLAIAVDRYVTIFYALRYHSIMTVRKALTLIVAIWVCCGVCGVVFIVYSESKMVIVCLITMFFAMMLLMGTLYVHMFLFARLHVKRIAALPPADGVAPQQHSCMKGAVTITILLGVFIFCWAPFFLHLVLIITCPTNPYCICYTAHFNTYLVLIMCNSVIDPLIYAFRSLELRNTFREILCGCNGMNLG
human melanocortin-4 receptor (human), sequence (P32245 whole entry): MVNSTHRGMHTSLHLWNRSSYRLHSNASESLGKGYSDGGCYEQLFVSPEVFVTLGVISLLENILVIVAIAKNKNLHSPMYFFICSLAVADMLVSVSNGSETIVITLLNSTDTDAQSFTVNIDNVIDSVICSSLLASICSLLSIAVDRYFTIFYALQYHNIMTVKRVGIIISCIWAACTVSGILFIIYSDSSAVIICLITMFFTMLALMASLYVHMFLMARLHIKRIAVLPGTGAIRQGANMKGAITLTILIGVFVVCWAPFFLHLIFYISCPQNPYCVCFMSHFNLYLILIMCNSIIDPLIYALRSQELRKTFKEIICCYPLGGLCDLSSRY

| Substance | Ki [1] [nM] | Ki [2] [nM] | Ki [3] [nM] | Ki [4] [nM] | EC50, intracellular cyclic AMP (cAMP) levels [5] [nM] | EC50, intracellular cyclic AMP (cAMP) levels [6] [nM] | EC50, intracellular cyclic AMP (cAMP) levels [7] [nM] | EC50, intracellular cyclic AMP (cAMP) levels [8] [µM] |
| --- | --- | --- | --- | --- | --- | --- | --- | --- |
| Hydantoin(C(O)-(D-Arg-Gly))-cyclo(Cys-Glu-His-D-Phe-Arg-Trp-Cys)-NH2 (peptide) | 9.49 | 124 | 2.95 | 2260 | – | – | – | – |
| cyclo[Hydantoin(C(O)-(Glu-D-Ala))-His-D-Phe-Arg-Trp-Orn]-NH2 (peptide; unit assumed) | – | – | – | – | 39.2 | 4.94 | – | – |
| Hydantoin(C(O)-(D-Arg-Gly))-cyclo(Cys-Glu-His-D-Phe-Arg-Trp-Cys)-NH2 (peptide; unit assumed) | – | – | – | – | 17.1 | 0.16 | 18 | 2.71 |
| cyclo[Hydantoin(C(O)-(Glu-D-Ala))-His-D-Phe-Arg-Trp-Dap]-NH2 (peptide; unit assumed) | – | – | – | – | 18.2 | 0.182 | 56.7 | > 10 |
| cyclo[Hydantoin(C(O)-(Asp-A6c))-D-2-Nal-Arg-Trp-Lys]-NH2 (peptide) | 2170 | 1480 | 16.5 | 451 | – | – | – | – |
| cyclo[Hydantoin(C(O)-(Asp-D-Ala))-His-D-Phe-Arg-Trp-Orn]-NH2 (peptide; unit assumed) | – | – | – | – | – | 4.5 | 56.6 | 9.3 |
| cyclo[Hydantoin(C(O)-(Asp-D-Ala))-His-D-Phe-Arg-Trp-Orn]-NH2 (peptide) | 37.7 | 576 | 7.81 | 6400 | 88.6 | – | – | – |
| cyclo[Hydantoin(C(O)-(Asp-A3c))-D-2-Nal-Arg-Trp-Lys]-NH2 (peptide) | 7570 | 1920 | 420 | 2880 | – | – | – | – |
| cyclo[Hydantoin(C(O)-(Asp-D-Ala))-His-D-Phe-Arg-Trp-Dap]-NH2 (peptide; unit assumed) | – | – | – | – | 49.3 | 2.12 | – | – |
| cyclo[Hydantoin(C(O)-(Glu-D-Ala))-His-D-Phe-Arg-Trp-Orn]-NH2 (peptide) | 60.4 | 2840 | 52.4 | – | – | – | – | – |
| cyclo[Hydantoin(C(O)-(Asp-Aic))-D-2-Nal-Arg-Trp-Lys]-NH2 (peptide) | 9030 | 2630 | 35.8 | 1160 | – | – | – | – |

Continued, values first:

| Ki [1] [nM] | Ki [2] [nM] | Ki [3] [nM] | Ki [4] [nM] | EC50, intracellular cyclic AMP (cAMP) levels [5] [nM] | EC50, intracellular cyclic AMP (cAMP) levels [6] [nM] | EC50, intracellular cyclic AMP (cAMP) levels [7] [nM] | EC50, intracellular cyclic AMP (cAMP) levels [8] [µM] | Substance |
| --- | --- | --- | --- | --- | --- | --- | --- | --- |
| 200 | – | – | – | – | – | – | – | cyclo[Hydantoin(C(O)-(Asp-His))-D-2-Nal-Arg-Trp-Lys]-NH2 (peptide) |
| 28 | 90.5 | 12.7 | 877 | – | – | – | – | cyclo[Hydantoin(C(O)-(Glu-D-Ala))-His-D-Phe-Arg-Trp-Dab]-NH2 (peptide) |
| 4.3 | 78 | 1.77 | 4540 | – | – | – | – | Hydantoin(C(O)-(Gly-D-Arg))-cyclo(Cys-Glu-His-D-Phe-Arg-Trp-Cys)-NH2 (peptide) |
| 1280 | 2760 | 266 | – | – | – | – | – | cyclo[Hydantoin(C(O)-(Asp-Apc))-D-2-Nal-Arg-Trp-Lys]-NH2 (peptide) |
| – | – | – | – | 21.5 | 0.584 | 17 | 0.352 | Hydantoin(C(O)-(Nle-Gly))-cyclo(Cys-D-Ala-His-D-Phe-Arg-Trp-Pen)-NH2 (peptide; unit assumed) |
| 9940 | 2390 | – | – | – | – | – | – | cyclo[Hydantoin(C(O)-(Asp-A5c))-D-2-Nal-Arg-Trp-Lys]-NH2 (peptide) |
| 66.6 | 1820 | 19.9 | – | – | – | – | – | cyclo[Hydantoin(C(O)-(Asp-D-Ala))-His-D-Phe-Arg-Trp-Dap]-NH2 (peptide) |
| 16.4 | 863 | 4.97 | – | – | – | – | – | cyclo[Hydantoin(C(O)-(Glu-D-Ala))-His-D-Phe-Arg-Trp-Dap]-NH2 (peptide) |
| – | – | – | – | 10.3 | 0.125 | 12.9 | 7.44 | Hydantoin(C(O)-(Gly-D-Arg))-cyclo(Cys-Glu-His-D-Phe-Arg-Trp-Cys)-NH2 (peptide; unit assumed) |
| 12.9 | – | 3.53 | 27.1 | – | – | – | – | Hydantoin(C(O)-(Nle-Gly))-cyclo(Cys-D-Ala-His-D-Phe-Arg-Trp-Pen)-NH2 (peptide) |
